“And” between values parts separate entries of the source, which are not always exact repeats. Identical values can stand only once.
Key:
SARS-CoV PLP2 = SARS-CoV PLP2 (Severe acute respiratory syndrome coronavirus, UniProt P0C6U8)
[1] = test system: T1, 11-mer Gly818-Ala819 site-containing oligopeptide VFRLKGGAPIK
T1 sequence: VFRLKGGAPIK

[2] = test system: 12-mer oligopeptide […] containing the Gly818-Ala819 cleavage site
[3] = test system: MHV 12-mer peptide substrate (P6-P1′ FSLKGGA)
[4] = test system: T2, 16-mer Gly818-Ala819 site-containing oligopeptide NVFRLKGGAPIKGVTF
T2 sequence: NVFRLKGGAPIKGVTF

[5] = test system: T3, 18-mer Gly818-Ala819 site-containing oligopeptide NNVFRLKGGAPIKGVTFG
T3 sequence: NNVFRLKGGAPIKGVTFG

[6] = test system: T4, 12-mer oligopeptide RELNGGAVTRYV containing the Gly180-Ala181 cleavage site
T4 sequence: RELNGGAVTRYV

[7] = test system: T5, 14-mer Gly818-Ala819 site-containing oligopeptide VFRLKGGAPIKGVT
T5 sequence: VFRLKGGAPIKGVT

[8] = test system: T6, 10-mer oligopeptide RLKGGAPIKG (five P residues, five P′ residues)
T6 sequence: RLKGGAPIKG

[9] = test system: T7, 9-mer oligopeptide FRLKGGAPI
T7 sequence: FRLKGGAPI

[10] = test system: BCoV 12-mer peptide substrate (P6-P1′ FSLKGGA)
[11] = test system: T8, 12-mer oligopeptide ISLKGGKIVSTC containing the Gly2740-Lys2741 cleavage site
T8 sequence: ISLKGGKIVSTC

[12] = test system: T9, 8-mer oligopeptide LKGGAPIK
T9 sequence: LKGGAPIK

[13] = test system: T10, 10-mer oligopeptide FRLKGGAPIK (six P residues, four P′ residues)
T10 sequence: FRLKGGAPIK

[14] = test system: Fluorogenic peptide substrate Abz-[…]-EDDNP

For RELNGGAVTRYV [Gly180-Ala181], the “Cleavage % 12 hours” value (SARS-CoV PLP2) was 5 ± 1% and the “percentage of the cleavage after 12 hours of digestion” value (SARS-CoV PLP2) was 5%.

In the case of “SARS-CoV papain-like protease 2 (SARS-CoV PLP2), residues 1414-1858 of pp1a, N-terminal 6xHis tag”, the Cleavage %, 2 hours [1] is reported as 52.9%, the Cleavage %, 12 hours [1] is reported as 100% and the Cleavage %, 2 h [2] is reported as 70.1%. The Cleavage %, 2 hours [2] was 70% and 70.1%, the Cleavage %, 12 h [2] was 100% and the Cleavage %, 12 hours [2] was 100%. It also gave a Cleavage %, 2 hours [3] of 21%, a Cleavage %, 12 hours [3] of 80% and a Cleavage %, 2 hours [4] of 63%. It also gave a Cleavage %, 12 hours [4] of 100%, a Cleavage %, 2 hours [5] of 60.5% and a Cleavage %, 12 hours [5] of 100%. The Cleavage %, 12 hours [6] was 5%, the Cleavage %, 2 hours [7] was 67.6% and the Cleavage %, 12 hours [7] was 100%. It also gave a Cleavage %, 2 hours [8] of 14.8%, a Cleavage %, 12 hours [8] of 56.4% and a Cleavage %, 2 hours [9] of 36.2%. The Cleavage %, 12 hours [9] was 85.1%, the Cleavage %, 2 hours [10] was 27% and the Cleavage %, 12 hours [10] was 85%. The Cleavage %, 2 hours [11] was 7%, the Cleavage %, 12 hours [11] was 29% and the Cleavage %, 2 hours [12] was 11.4%. The Cleavage %, 12 hours [12] was 44.7%, the Cleavage %, 2 hours [13] was 49.9% and the Cleavage %, 12 hours [13] was 100%. The Kcat/Km (µM^-1min^-1) at pH 5.25 [14] was 0.06 µM^-1min^-1, the Kcat/Km (µM^-1min^-1) at pH 6.05 [14] was 0.17 µM^-1min^-1 and the Kcat/Km (µM^-1min^-1) at pH 6.82 [14] was 0.31 µM^-1min^-1. It also gave a Kcat/Km (µM^-1min^-1) at pH 7.42 [14] of 0.27 µM^-1min^-1, a Kcat/Km (µM^-1min^-1) at pH 8.01 [14] of 0.3 µM^-1min^-1 and a Kcat/Km (µM^-1min^-1) at pH 8.65 [14] of 0.3 µM^-1min^-1. For the same substance, the Kcat/Km (µM^-1min^-1) at pH 9.20 [14] was 0.21 µM^-1min^-1, the Kcat/Km (µM^-1min^-1) at pH 9.80 [14] was 0.08 µM^-1min^-1 and the Km (µM) at pH 5.25 [14] was 21.4 µM. For the same substance, the Km (µM) at pH 6.05 [14] was 64 µM, the Km (µM) at pH 6.82 [14] was 65.5 µM and the Km (µM) at pH 7.42 [14] was 77.2 µM. It also gave a Km (µM) at pH 8.01 [14] of 72 µM, a Km (µM) at pH 8.65 [14] of 71.5 µM and a Km (µM) at pH 9.20 [14] of 68 µM. For the same substance, the Km (µM) at pH 9.80 [14] was 70.5 µM, the kcat (min^-1) at pH 5.25 [14] was 1.37 min^-1 and the kcat (min^-1) at pH 6.05 [14] was 11.9 min^-1. The kcat (min^-1) at pH 6.82 [14] was 20.6 min^-1, the kcat (min^-1) at pH 7.42 [14] was 19.8 min^-1 and the kcat (min^-1) at pH 8.01 [14] was 21.9 min^-1. It also gave a kcat (min^-1) at pH 8.65 [14] of 22 min^-1, a kcat (min^-1) at pH 9.20 [14] of 14.1 min^-1 and a kcat (min^-1) at pH 9.80 [14] of 5.99 min^-1. The “pH-independent kcat value (constant C from the pH-Log kcat plot)” value [14] was 25.4±3.43 min^-1, the “pH-independent kcat/Km value (constant C from the pH-Log (kcat/Km) plot)” value [14] was 0.31±0.02 min^-1µM^-1 and the “true Km value” [14] was “corrected to 82 µM”.

Source: patent publication US20070160981A1 (priority 2005, published 2007)
